The record followed here is patent publication US20100120634A1 (Pfizer, published 2010).

B1: 6C3 scFv (scFv)
chain: DIQMTQSPSSLSASVGDRVTITCRASQDVGIYVNWFQQKPGKAPRRLIYRATNLADGVPSRFSGSRSGTDFTLTISSLQPEDFATYYCLEFDEHPLTFGGGTKVEIKDGGGSGGGGSGGGGSSEVQLVESGGGLVQPGGSLRLSCAASGFTFNNYWMTWVRQAPGKGLEWVASIDNSGDNTYYPDSVKDRFTISRDNAKNSLYLQMNSLRAEDTAVYYCARGGDITLGLDVWGQGTLVTVSS
B2: 3D5 scFv (scFv)
chain: DIQMTQSPSSLSASVGDRVTITCRASQDVGIYVNWFQQKPGKAPRRLIYRATNLADGVPSRFSGSRSGTDFTLTISSLQPEDFATYYCLEFDEHPLTFGGGTKVEIKDGGGSGGGGSGGGGSSEVQLVESGGGLVQPGGSLRLSCAASGFTFNNYWMTWVRQAPGKGLEWVASIDNSGDNTYYPDSVKDRFTISRDNAKNSLYLQMNSLRAEDTAVYYCARGGDIKVGLDLWGQGTLVTVSS
B3: 3B4 scFv (scFv)
chain: DIQMTQSPSSLSASVGDRVTITCRASQDVGIYVNWFQQKPGKAPRRLIYRATNLADGVPSRFSGSRSGTDFTLTISSLQPEDFATYYCLEFDEHPLTFGGGTKVEIKDGGGSGGGGSGGGGSSEVQLVESGGGLVQPGGSLRLSCAASGFTFNNYWMTWVRQAPGKGLEWVASIDNSGDNTYYPDSVKDRFTISRDNAKNSLYLQMNSLRAEDTAVYYCARGGDIREGLRYWGQGTLVTVSS
B4: 6E3 scFv (scFv)
chain: DIQMTQSPSSLSASVGDRVTITCRASQDVGIYVNWFQQKPGKAPRRLIYRATNLADGVPSRFSGSRSGTDFTLTISSLQPEDFATYYCLEFDEHPLTFGGGTKVEIKDGGGSGGGGSGGGGSSEVQLVESGGGLVQPGGSLRLSCAASGFTFNNYWMTWVRQAPGKGLEWVASIDNSGDNTYYPDSVKDRFTISRDNAKNSLYLQMNSLRAEDTAVYYCARGGDIRVSLDFWGQGTLVTVSS
B5: 6D5 scFv (scFv)
chain: DIQMTQSPSSLSASVGDRVTITCRASQDVGIYVNWFQQKPGKAPRRLIYRATNLADGVPSRFSGSRSGTDFTLTISSLQPEDFATYYCLEFDEHPLTFGGGTKVEIKDGGGSGGGGSGGGGSSEVQLVESGGGLVQPGGSLRLSCAASGFTFNNYWMTWVRQAPGKGLEWVASIDNSGDNTYYPDSVKDRFTISRDNAKNSLYLQMNSLRAEDTAVYYCARGGDIKVSLDQWGQGTLVTVSS
B6: 3B2 scFv (scFv)
chain: DIQMTQSPSSLSASVGDRVTITCRASQDVGIYVNWFQQKPGKAPRRLIYRATNLADGVPSRFSGSRSGTDFTLTISSLQPEDFATYYCLEFDEHPLTFGGGTKVEIKDGGGSGGGGSGGGGSSEVQLVESGGGLVQPGGSLRLSCAASGFTFNNYWMTWVRQAPGKGLEWVASIDNSGDNTYYPDSVKDRFTISRDNAKNSLYLQMNSLRAEDTAVYYCARGGDILVGLDYWGQGTLVTVSS
B7: 6C1 scFv (scFv)
chain: DIQMTQSPSSLSASVGDRVTITCRASQDVGIYVNWFQQKPGKAPRRLIYRATNLADGVPSRFSGSRSGTDFTLTISSLQPEDFATYYCLELDEHPLTFGGGTKVEIKDGGGSGGGGSGGGGSSEVQLVESGGGLVQPGGSLRLSCAASGFTFNNYWMTWVRQAPGKGLEWVASIDNSGDNTYYPDSVKDRFTISRDNAKNSLYLQMNSLRAEDTAVYYCARGGDIKVGLDNWGQGTLVTVSS
B8: 6B6 scFv (scFv)
chain: DIQMTQSPSSLSASVGDRVTITCRASQDVGIYVNWFQQKPGKAPRRLIYRATNLADGVPSRFSGSRSGTDFTLTISSLQPEDFATYYCLEFDEHPLTFGGGTKVEIKDGGGSGGGGSGGGGSSEVQLVESGGGLVQPGGSLRLSCAASGFTFNNYWMTWVRQAPGKGLEWVASIDNSGDNTYYPDSVKDRFTISRDNAKNSLYLQMNSLRAEDTAVYYCARGGDIIISLDWWGQGTLVTVSS
B9: 3C6 scFv (scFv)
chain: DIQMTQSPSSLSASVGDRVTITCRASQDVGIYVNWFQQKPGKAPRRLIYRATNLADGVPSRFSGSRSGTDFTLTISSLQPEDFATYYCLEFDEHPLTFGGGTKVEIKDGGGSGGGGSGGGGSSEVQLVESGGGLVQPGGSLRLSCAASGFTFNNYWMTWVRQAPGKGLEWVASIDNSGDNTYYPDSVKDRFTISRDNAKNSLYLQMNSLRAEDTAVYYCARGGDIVVGLDHWGQGTLVTVSS
B10: 6A12 scFv (scFv, from a related filing, part only)
scFv: DIQMTQSPSSLSASVGDRVTITCRASQDVGIYVNWFQQKPGKAPRRLIYRATNLADGVPSRFSGSRSGTDFTLTISSLQPEDFATYYCLQYDAHPLTFGGGTKVEIKDGGGSGGGGSGGGGSSEVQLVESGGGLVQPGGSLRLSCAASGFTFNNYWMTWVRQAPGKGLEWVASIDNSGDNTYYPDSVKDRFTISRDNAKNSLYLQMNSLRAEDTAVYYCARGGDITTGFDYWGQGTLVTVSS
B11: 3B7 scFv (scFv, from a related filing, part only)
scFv: DIQMTQSPSSLSASVGDRVTITCRASQDVGIYVNWFQQKPGKAPRRLIYRATNLADGVPSRFSGSRSGTDFTLTISSLQPEDFATYYCLQFDSHPLTFGGGTKVEIKDGGGSGGGGSGGGGSSEVQLVESGGGLVQPGGSLRLSCAASGFTFNNYWMTWVRQAPGKGLEWVASIDNSGDNTYYPDSVKDRFTISRDNAKNSLYLQMNSLRAEDTAVYYCARGGDITTGFDYWGQGTLVTVSS
B12: 6C11 scFv (scFv, from a related filing, part only)
scFv: DIQMTQSPSSLSASVGDRVTITCRASQDVGIYVNWFQQKPGKAPRRLIYRATNLADGVPSRFSGSRSGTDFTLTISSLQPEDFATYYCLQYDAHPLTFGGGTKVEIKDGGGSGGGGSGGGGSSEVQLVESGGGLVQPGGSLRLSCAASGFTFNNYWMTWVRQAPGKGLEWVASIDNSGDNTYYPDSVKDRFTISRDNAKNSLYLQMNSLRAEDTAVYYCARGGDITTGFDYWGQGTLVTVSS
B13: 3G8 scFv (scFv, from a related filing, part only)
scFv: DIQMTQSPSSLSASVGDRVTITCRASQDVGIYVNWFQQKPGKAPRRLIYRATNLADGVPSRFSGSRSGTDFTLTISSLQPEDFATYYCLQYDAHPLTFGGGTKVEIKDGGGSGGGGSGGGGSSEVQLVESGGGLVQPGGSLRLSCAASGFTFNNYWMTWVRQAPGKGLEWVASIDNSGDNTYYPDSVKDRFTISRDNAKNSLYLQMNSLRAEDTAVYYCARGGDITTGFDYWGQGTLVTVSS

Sequence of biotin labeled hRAGE-Fc (human) (Q15109 24-344): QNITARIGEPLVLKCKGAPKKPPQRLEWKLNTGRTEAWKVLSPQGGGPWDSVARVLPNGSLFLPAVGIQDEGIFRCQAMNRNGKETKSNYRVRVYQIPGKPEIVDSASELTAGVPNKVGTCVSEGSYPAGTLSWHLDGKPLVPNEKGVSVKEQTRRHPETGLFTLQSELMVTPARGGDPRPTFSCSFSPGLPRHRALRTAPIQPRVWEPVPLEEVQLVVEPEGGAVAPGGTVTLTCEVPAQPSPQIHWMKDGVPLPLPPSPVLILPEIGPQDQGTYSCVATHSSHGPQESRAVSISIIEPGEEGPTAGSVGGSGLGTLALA

The target in the first test is T1, biotin labeled hRAGE-Fc (human, UniProt Q15109 24-344, biotin-labeled (site not stated)).
T1 construct: used biotinylated in HTRF and coated in ELISA; also called Biotin-labeled RAGE-Fc; biotinylated-RAGE-Fc; not shown: Fc part not described
T1 sequence (Q15109 24-344): as above
Briefly: HTRF competition; scFv against Eu-cryptate XT-M4 for biotin-hRAGE-Fc.
Usually IC50 stands for the point on the concentration scale where inhibition reaches its midpoint. With B1, the IC50 was 1.52 nM.
Molecule B2 returned an IC50 of 2.99 nM.
On the same count and under the same terms, then B3, with 1.3 nM; and B4, with 1.74 nM.
In turn, B5 showed an IC50 of 1.45 nM.
B6: the IC50 is 0.91 nM.
Same read-out and setting: then B7, with 4.44 nM; and B8, with 0.64 nM.
Same read-out and setting: next, B9: 1.25 nM.

Another test addresses biotin labeled hRAGE-Fc (human) (UniProt Q15109). The description is as above.
B10 showed an IC50 of 8.27 nM.
As to B11, the IC50 came out at 7.35 nM.
B12 showed an IC50 of 9.03 nM.
In turn, B13 showed an IC50 of 8.08 nM.
